Results: patent publication US20240117018A1 (UNIVERSITY OF MARYLAND BALTIMORE, published 2024)
Like-named read-outs stand apart in the source and are kept apart here.

Key:
[1] = target: monomeric HIV-1 Ba-L gp120 (HIV-1 Ba-L)
[2] = target: monomeric HIV-1 Ba-L gp120 (HIV-1 Ba-L); remark: listed apart in the source
[3] = target: monomeric HIV-1 Ba-L gp120 (HIV-1 Ba-L); remark: listed apart in the source

B1: N49P7 (antibody)
heavy: not shown
light: QSALTQPRSVSASPGQSVTISCTGTHNLVSWCQHQPGRAPKLLIYDFNKRPSGVPDRFSGSGSGGTASLTITGLQDDDDAEYFCWAYEAFGGGTKLTVLGQPKAAPSVTLFPPSSEELQANKATLVCLISDFYPGAVTVAWKADSSPVKAGVETTTPSKQSNNKYAASSYLSLTPEQWKSHRSYSCQVTHEGSTVEKTVAPTECS
Kd [1]: 0.86 nM

B2: N49P7.1 (antibody)
heavy: not shown
light: QSALTQPRSVSASPGQSVTISCTGTHNLVSWCQHQPGRAPKLLIYDFNKRPSGVPDRFSGSGSGGTASLTITGLQDDDDAEYFCWAYEAFGGGTKLTVLRQPKAAPSVTLFPPSSEELQANKATLVCLISDFYPGAVTVAWKADSSPVKAGVETTTPSKQSNNKYAASSYLSLTPEQWKSHRSYSCQVTHEGSTVEKTVAPTECS
Kd [2]: 1.14 nM

B3: N49P11 (antibody, V domains shown)
V domain 1: SAELVQSGAVVKKPGTSVKVSCQAYGYTFTDYLIHWLRQAPGQGLEWMGWMNPVYGQVNYAQNFQGRVSMTRDIYRETAFLEVRDLKTDDTGTYYCVRDTGDGSRRHFDSINWFLDLWGRGTWIRVAP
V domain 2: QCVLTQPRSVSGSPGQSVTISCTGTHNYVSWCQHHPGNAPKLLLYDFDKRPSGISDRFSGSRSGNTASLTISGLQPEDEADYFCWAFEAFGGGTKVLVLR
Kd [3]: 15.6 nM
